# From the supplement of paper PMC10567573
# B1: NCF4 (parent)
# chain: FGPDSKSSALACTLPTLPAKVYVG
# Variants of: B1
# Assay: protein stability index of a GFP-peptide fusion (GPS, HEK-293T) (PSI 1-6); higher = more stable
# Conditions: c terminus: a fixed tail appended
# 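Also: lentivirally expressed fusions sorted by FACS into six bins by GFP to DsRed ratio, PSI derived from sequencing read proportions per bin multiplied by bin number.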
row,Variant,protein stability index
1,FGPDSKSVALACTLPTLPAKVYVG,2.22
2,FGPDSKSDALACTLPTLPAKVYVG,2.7
3,FGPDSKSRALACTLPTLPAKVYVG,3.19
4,FGPDSKSIALACTLPTLPAKVYVG,2.44
5,FGPDSKSAALACTLPTLPAKVYVG,2.32
6,FGPDSKSCALACTLPTLPAKVYVG,2.44
7,FGPDSKSEALACTLPTLPAKVYVG,3.36
8,FGPDSKSPALACTLPTLPAKVYVG,2.22
9,FGPDSKSHALACTLPTLPAKVYVG,1.67
10,FGPDSKSYALACTLPTLPAKVYVG,4.4
11,FGPDSKSQALACTLPTLPAKVYVG,2.29
12,FGPDSKSGALACTLPTLPAKVYVG,2.77
13,FGPDSKSMALACTLPTLPAKVYVG,2.08
14,FGPDSKSLALACTLPTLPAKVYVG,1.98
15,FGPDSKSWALACTLPTLPAKVYVG,2.65
16,FGPDSKSNALACTLPTLPAKVYVG,2.32
17,FGPDSKSTALACTLPTLPAKVYVG,1.89
18,FGPDSKSFALACTLPTLPAKVYVG,2.86
19,FGPDSKSKALACTLPTLPAKVYVG,1.85
20,FGPDSKSSALACTLPALPAKVYVG,2
21,FGPDYKSSALACTLPTLPAKVYVG,1.51
22,FGPDVKSSALACTLPTLPAKVYVG,2.46
23,FGPDSKSSALACQLPTLPAKVYVG,2.19
24,FGPDSKSSALACALPTLPAKVYVG,2.28

row,Variant,protein stability index
1,FGPDSKSSALACFLPTLPAKVYVG,2.39
2,FGPDSKSSALACNLPTLPAKVYVG,2.9
3,FGPDSKSSALACILPTLPAKVYVG,2.18
4,FGPDSKSSALACRLPTLPAKVYVG,2.33
5,FGPDSKSSALACKLPTLPAKVYVG,2.46
6,FGPDSKSSALACCLPTLPAKVYVG,1.96
7,FGPDSKSSALACMLPTLPAKVYVG,2.15
8,FGPDSKSSALACLLPTLPAKVYVG,1.83
9,FGPDSKSSALACGLPTLPAKVYVG,1.85
10,FGPDSKSSALACVLPTLPAKVYVG,1.79
11,FGPDSKSSALACWLPTLPAKVYVG,3.59
12,FGPDSKSSALACPLPTLPAKVYVG,1.88
13,FGPDSKSSALACELPTLPAKVYVG,2.7
14,FGPDSKSSALACHLPTLPAKVYVG,1.85
15,FGPDSKSSALACSLPTLPAKVYVG,2.44
16,FGPDSKSSALACDLPTLPAKVYVG,2.81
17,FGPDSKSSALACYLPTLPAKVYVG,1.86
18,FGPDSKASALACTLPTLPAKVYVG,1.9
19,FGPDSKGSALACTLPTLPAKVYVG,2.37
20,FGPDSKYSALACTLPTLPAKVYVG,1.06
21,FGPDSKCSALACTLPTLPAKVYVG,1.69
22,FGPDSKMSALACTLPTLPAKVYVG,2.25
23,FGPDSKWSALACTLPTLPAKVYVG,1.97
24,FGPDSKLSALACTLPTLPAKVYVG,2.07

row,Variant,protein stability index
1,FGPDSKISALACTLPTLPAKVYVG,1.56
2,FGPDSKPSALACTLPTLPAKVYVG,1.97
3,FGPDSKTSALACTLPTLPAKVYVG,2.37
4,FGPDSKKSALACTLPTLPAKVYVG,2.35
5,FGPDSKVSALACTLPTLPAKVYVG,1.73
6,FGPDSKRSALACTLPTLPAKVYVG,2.35
7,FGPDSKNSALACTLPTLPAKVYVG,2.23
8,FGPDSKQSALACTLPTLPAKVYVG,3.06
9,FGPDSKDSALACTLPTLPAKVYVG,2.9
10,FGPDSKFSALACTLPTLPAKVYVG,2.9
11,FGPDSKHSALACTLPTLPAKVYVG,1.57
12,FGPDSKESALACTLPTLPAKVYVG,2.72
13,FGPDSKSSALAGTLPTLPAKVYVG,2.41
14,FGPDSKSSALAETLPTLPAKVYVG,3.13
15,FGPDSKSSALAQTLPTLPAKVYVG,2.36
16,FGPDSKSSALATTLPTLPAKVYVG,2.76
17,FGPDSKSSALAKTLPTLPAKVYVG,2.95
18,FGPDSKSSALAYTLPTLPAKVYVG,1.88
19,FGPDSKSSALAHTLPTLPAKVYVG,3.16
20,FGPDSKSSALAITLPTLPAKVYVG,2.3
21,FGPDSKSSALAWTLPTLPAKVYVG,1.88
22,FGPDSKSSALALTLPTLPAKVYVG,2.33
23,FGPDSKSSALARTLPTLPAKVYVG,2.5
24,FGPDSKSSALAVTLPTLPAKVYVG,2.19

row,Variant,protein stability index
1,FGPDSKSSALANTLPTLPAKVYVG,2.77
2,FGPDSKSSALAATLPTLPAKVYVG,2.87
3,FGPDSKSSALAMTLPTLPAKVYVG,2.77
4,FGPDSKSSALADTLPTLPAKVYVG,2.95
5,FGPDSKSSALAFTLPTLPAKVYVG,1.7
6,FGPDSKSSALASTLPTLPAKVYVG,2.87
7,FGPDSKSSYLACTLPTLPAKVYVG,1.5
8,FGPDSKSSHLACTLPTLPAKVYVG,2.23
9,FGPDSKSSTLACTLPTLPAKVYVG,2.44
10,FGPDSKSSRLACTLPTLPAKVYVG,2.29
11,FGPDSKSSILACTLPTLPAKVYVG,1.86
12,FGPDSKSSSLACTLPTLPAKVYVG,2.23
13,FGPDSKSSNLACTLPTLPAKVYVG,2.49
14,FGPDSKSSKLACTLPTLPAKVYVG,1.89
15,FGPDSKSSDLACTLPTLPAKVYVG,3.18
16,FGPDSKSSPLACTLPTLPAKVYVG,1.57
17,FGPDSKSSCLACTLPTLPAKVYVG,1.74
18,FGPDSKSSQLACTLPTLPAKVYVG,2.46
19,FGPDSKSSELACTLPTLPAKVYVG,3.67
20,FGPDSKSSLLACTLPTLPAKVYVG,1.11
21,FGPDSKSSWLACTLPTLPAKVYVG,2.52
22,FGPDSKSSVLACTLPTLPAKVYVG,2.25
23,FGPDSKSSMLACTLPTLPAKVYVG,1.9
24,FGPDSKSSGLACTLPTLPAKVYVG,1.67

row,Variant,protein stability index
1,FGPDSKSSALACTLDTLPAKVYVG,1.53
2,FGPDSKSSALACTLITLPAKVYVG,3.1
3,FGPDSKSSALACTLMTLPAKVYVG,1.86
4,FGPDSKSSALACTLTTLPAKVYVG,1.59
5,FGPDSKSSALACTLYTLPAKVYVG,2.87
6,FGPDSKSSALACTLQTLPAKVYVG,1.89
7,FGPDSKSSALACTLVTLPAKVYVG,1.99
8,FGPDSKSSALACTLRTLPAKVYVG,1.61
9,FGPDSKSSALACTLATLPAKVYVG,1.5
10,FGPDSKSSALACTLETLPAKVYVG,2.29
11,FGPDSKSSALACTLGTLPAKVYVG,1.61
12,FGPDSKSSALACTLWTLPAKVYVG,3.34
13,FGPDSKSSALACTLCTLPAKVYVG,2.19
14,FGPDSKSSALACTLNTLPAKVYVG,1.85
15,FGPDSKSSALACTLHTLPAKVYVG,1.67
16,FGPDSKSSALACTLKTLPAKVYVG,1.86
17,FGPDSKSSALACTLLTLPAKVYVG,1.8
18,FGPDSKSSALACTLSTLPAKVYVG,1.95
19,FGPDSKSSALACTLFTLPAKVYVG,3.49
20,FGPDSNSSALACTLPTLPAKVYVG,2.8
21,FGPDSASSALACTLPTLPAKVYVG,1.95
22,FGPDSDSSALACTLPTLPAKVYVG,3.17
23,FGPDSTSSALACTLPTLPAKVYVG,2.78
24,FGPDSGSSALACTLPTLPAKVYVG,2.48

row,Variant,protein stability index
1,FGPDSCSSALACTLPTLPAKVYVG,2.02
2,FGPDSVSSALACTLPTLPAKVYVG,2.07
3,FGPDSMSSALACTLPTLPAKVYVG,2.89
4,FGPDSRSSALACTLPTLPAKVYVG,1.76
5,FGPDSSSSALACTLPTLPAKVYVG,2.41
6,FGPDSISSALACTLPTLPAKVYVG,1.95
7,FGPDSLSSALACTLPTLPAKVYVG,1.63
8,FGPDSWSSALACTLPTLPAKVYVG,3.06
9,FGPDSQSSALACTLPTLPAKVYVG,2.45
10,FGPDSPSSALACTLPTLPAKVYVG,2.33
11,FGPDSHSSALACTLPTLPAKVYVG,2.29
12,FGPDSFSSALACTLPTLPAKVYVG,1.53
13,FGPDSYSSALACTLPTLPAKVYVG,1.43
14,FGPDSESSALACTLPTLPAKVYVG,2.54
15,FGPDSKSSALACTHPTLPAKVYVG,2.19
16,FGPDSKSSALACTYPTLPAKVYVG,1.86
17,FGPDSKSSALACTIPTLPAKVYVG,2.15
18,FGPDSKSSALACTNPTLPAKVYVG,2.32
19,FGPDSKSSALACTQPTLPAKVYVG,2.25
20,FGPDSKSSALACTCPTLPAKVYVG,1.77
21,FGPDSKSSALACTVPTLPAKVYVG,2.11
22,FGPDSKSSALACTRPTLPAKVYVG,2.32
23,FGPDSKSSALACTAPTLPAKVYVG,2.68
24,FGPDSKSSALACTDPTLPAKVYVG,2.84

row,Variant,protein stability index
1,FGPDSKSSALACTEPTLPAKVYVG,2.76
2,FGPDSKSSALACTKPTLPAKVYVG,2.55
3,FGPDSKSSALACTWPTLPAKVYVG,1.51
4,FGPDSKSSALACTFPTLPAKVYVG,2.25
5,FGPDSKSSALACTMPTLPAKVYVG,2.77
6,FGPDSKSSALACTSPTLPAKVYVG,2.86
7,FGPDSKSSALACTGPTLPAKVYVG,2.66
8,FGPDSKSSALACTTPTLPAKVYVG,2.54
9,FGPDSKSSALDCTLPTLPAKVYVG,2.99
10,FGPDSKSSALKCTLPTLPAKVYVG,2.29
11,FGPDSKSSALSCTLPTLPAKVYVG,2.45
12,FGPDSKSSALTCTLPTLPAKVYVG,2.51
13,FGPDSKSSALHCTLPTLPAKVYVG,2.23
14,FGPDSKSSALICTLPTLPAKVYVG,2.24
15,FGPDSKSSALVCTLPTLPAKVYVG,1.76
16,FGPDSKSSALMCTLPTLPAKVYVG,2.86
17,FGPDSKSSALGCTLPTLPAKVYVG,2.22
18,FGPDSKSSALFCTLPTLPAKVYVG,2.4
19,FGPDSKSSALYCTLPTLPAKVYVG,1.46
20,FGPDSKSSALPCTLPTLPAKVYVG,2.17
21,FGPDSKSSALQCTLPTLPAKVYVG,3
22,FGPDSKSSALCCTLPTLPAKVYVG,2.35
23,FGPDSKSSALRCTLPTLPAKVYVG,1.58
24,FGPDSKSSALNCTLPTLPAKVYVG,2.78

row,Variant,protein stability index
1,FGPDSKSSALECTLPTLPAKVYVG,2.63
2,FGPDSKSSALLCTLPTLPAKVYVG,2.18
3,FGPDSKSSAYACTLPTLPAKVYVG,1.86
4,FGPDSKSSATACTLPTLPAKVYVG,3.57
5,FGPDSKSSADACTLPTLPAKVYVG,3.99
6,FGPDSKSSACACTLPTLPAKVYVG,2.69
7,FGPDSKSSANACTLPTLPAKVYVG,3.73
8,FGPDSKSSAKACTLPTLPAKVYVG,3.29
9,FGPDSKSSAIACTLPTLPAKVYVG,2.12
10,FGPDSKSSAMACTLPTLPAKVYVG,2.69
11,FGPDSKSSAFACTLPTLPAKVYVG,2.15
12,FGPDSKSSASACTLPTLPAKVYVG,2.64
13,FGPDSKSSAAACTLPTLPAKVYVG,2.99
14,FGPDSKSSAHACTLPTLPAKVYVG,2.88
15,FGPDSKSSAPACTLPTLPAKVYVG,3.58
16,FGPDSKSSAQACTLPTLPAKVYVG,2.95
17,FGPDSKSSAVACTLPTLPAKVYVG,2.88
18,FGPDSKSSAGACTLPTLPAKVYVG,2.93
19,FGPDSKSSAEACTLPTLPAKVYVG,3.65
20,FGPDSKSSARACTLPTLPAKVYVG,3.23
